Patent US20220143148A1, “COMPOSITIONS AND METHODS FOR MODULATING CGRP SIGNALING TO REGULATE INTESTINAL INNATE LYMPHOID CELLS” (The Broad Institute, Inc., priority 2019, published 2022)

Test system: small intestinal immune cells
Assay: Droplet-based scRNA-seq of small intestinal immune cells (LP and PP), OVA vs PBS, clustering and differential expression
Type: in vivo, mouse
Conditions: PP, cluster ID 8
Text: To comprehensively characterize small intestinal immune cells, Applicants generated scRNA-Seq profiles for 58,067 immune cells collected from lamina propria (LP) and Peyer's patch (PP) regions at steady state and after induction of a type 2 inflammatory reaction to ovalbumin (OVA) (Brandt et al., 2003) (FIGS. 1A and 8A). To ensure sufficient representation of rare cells, Applicants combined a normalization strategy—removing by flow sorting either a portion of IgD+ naïve B cells, which are the most abundant cell type in PPs, or all CD19+ and CD3+ T cells (FIG. 8B, Methods)—with profiling of a sufficiently large number of cells number (P>0.99 to recover at least 15 cells from each cluster, Methods) by massively parallel scRNA-seq (Haber et al., 2017) (Methods). Applicants obtained 36,797 and 21,270 high quality cells passing initial filtering (Methods) from PP and LP regions, respectively.
Overall, Applicants annotated 27 cell subsets across the two compartments, spanning T cells, B cells, ILCs, dendritic cells (DCs), myeloid cells and stromal cells, in frequencies ranging from 0.07% to 14%. Briefly, Applicants first partitioned the cells from the PP regions by unsupervised clustering (Methods) into 46 clusters, retained the 97% of cells that were robustly assigned cell identities in each cluster (Methods), assigned the cells from the LP regions to the 46 clusters using a classifier (Methods), and visualized the data with scvis (Ding et al., 2018), a deep generative model-based method (FIGS. 1B and 8C, Methods). Next, Applicants identified genes that were differentially expressed between the cells in each cluster and the remaining cells (Table 1, Methods), as well as between pairs of clusters (Table 2), to elucidate identities of similar cell types/states. Applicants excluded from downstream analysis clusters mostly consisting of contaminants from epithelium, likely doublets, or cells with a small number of Unique Molecular Identifiers (UMIs) (FIGS. 1C and 8D), or lacking distinct markers (Methods). Altogether, Applicants retained 27 clusters spanning 85% of the cells and each associated with distinct marker genes (FIG. 8E, Methods).
To induce allergic reaction to OVA, 6 to 7 weeks old mice were sensitized twice, two weeks apart, with 50 μg of OVA plus 1 mg of aluminum potassium sulfate adjuvant via intraperitoneal injection. Two weeks later, mice were orally administered with 50 mg of OVA on every other day for a total of five times. 1 μg of α-CGRP peptide was administered simultaneously when indicated. Mice were deprived of food for 3-4 hours in cages with wood chip bedding for limiting antigen degradation in the stomach before each intragastric challenge.
Isolation of cells from Peyer's patches (PPs). Peyer's patches (PPs) were carefully dissected from the small intestine under a stereo microscope using a fine scissor, pierced once with a fine forcep. Tissues were digested in freshly made digestion buffer (RPMI-1640 containing 100 μg/ml Liberase™ and 50 μg/ml DNase I at 37° C. on a roto-mixer. After 15 min, tissues were very gently mixed using a 1 ml pipette. The supernatant was collected and added to ice-cold MACS buffer (pH 7.4; PBS plus 2% FCS and 2 mM EDTA). Pre-warmed (37° C.) fresh digestion buffer was added to the remaining tissues. After rotation at 37° C. for 15 min, the mixture was vigorously mixed using a 1 ml pipette for 1 min. Supernatants from the two steps were combined and passed through 70 μm filters and stained for FACS (below).
Isolation of cells from the lamina propria (LP). The small intestines were opened longitudinally and washed in ice-cold PBS. For scRNA-seq, roughly 0.5 cm of fragments from each of the distal, middle and proximal regions without visible PPs were collected. Epithelial cells were dissociated by tissue rotation in pre-warmed (37° C.) PBS containing 10 mM EDTA at 37° C. for 15 min, followed by additional incubation on ice for 15 min. Tissues were then shaken vigorously. […]

B1: OVA (protein, UniProt P01012 2-386, looked up)
Ovalbumin: GSIGAASMEFCFDVFKELKVHHANENIFYCPIAIMSALAMVYLGAKDSTRTQINKVVRFDKLPGFGDSIEAQCGTSVNVHSSLRDILNQITKPNDVYSFSLASRLYAEERYPILPEYLQCVKELYRGGLEPINFQTAADQARELINSWVESQTNGIIRNVLQPSSVDSQTAMVLVNAIVFKGLWEKAFKDEDTQAMPFRVTEQESKPVQMMYQIGLFRVASMASEKMKILELPFASGTMSMLVLLPDEVSGLEQLESIINFEKLTEWTSSNVMEERKIKVYLPRMKMEEKYNLTSVLMAMGITDVFSSSANLSGISSAESLKISQAVHAAHAEINEAGREVVGSAEAGVDAASVSEEFRADHPFLFCIKHIATNAVLFFGRCVSP
B1 was tested, and the “Rab35 percentage of expressing cells in OVA-treated group” value was 0.207, the “Rac2 percentage of expressing cells in OVA-treated group” value was 0.97 and the “Rel percentage of expressing cells in OVA-treated group” value was 0.139. The “Rgs1 percentage of expressing cells in OVA-treated group” value was 0.699, the “Rnf125 percentage of expressing cells in OVA-treated group” value was 0.167 and the “Rnf157 percentage of expressing cells in OVA-treated group” value was 0.188. For the same molecule, the “Rora percentage of expressing cells in OVA-treated group” value was 0.161, the “Rrad percentage of expressing cells in OVA-treated group” value was 0.191 and the “Rsrp1 percentage of expressing cells in OVA-treated group” value was 0.559. The “Samd9l percentage of expressing cells in OVA-treated group” value was 0.176, the “Samsn1 percentage of expressing cells in OVA-treated group” value was 0.324 and the “Sh2d1a percentage of expressing cells in OVA-treated group” value was 0.488. For the same molecule, the “Sik1 percentage of expressing cells in OVA-treated group” value was 0.161, the “Skil percentage of expressing cells in OVA-treated group” value was 0.207 and the “Sla percentage of expressing cells in OVA-treated group” value was 0.335. For the same molecule, the “Slfn2 percentage of expressing cells in OVA-treated group” value was 0.408, the “Sp100 percentage of expressing cells in OVA-treated group” value was 0.537 and the “Taf10 percentage of expressing cells in OVA-treated group” value was 0.347. For the same molecule, the “Tfam percentage of expressing cells in OVA-treated group” value was 0.19, the “Tgif1 percentage of expressing cells in OVA-treated group” value was 0.305 and the “Tm6sf1 percentage of expressing cells in OVA-treated group” value was 0.454. The “Traf1 percentage of expressing cells in OVA-treated group” value was 0.464, the “Tsc22d3 percentage of expressing cells in OVA-treated group” value was 0.664 and the “Tuba4a percentage of expressing cells in OVA-treated group” value was 0.191. The “Txndc5 percentage of expressing cells in OVA-treated group” value was 0.239, the “Txnip percentage of expressing cells in OVA-treated group” value was 0.398 and the “Ube2s percentage of expressing cells in OVA-treated group” value was 0.478. For the same molecule, the “VgIl4 percentage of expressing cells in OVA-treated group” value was 0.47, the “Vps37b percentage of expressing cells in OVA-treated group” value was 0.79 and the “Zc3h12a percentage of expressing cells in OVA-treated group” value was 0.182. The “Zfp36l2 percentage of expressing cells in OVA-treated group” value was 0.84, the “Zfp512 percentage of expressing cells in OVA-treated group” value was 0.446 and the “AW112010 LN (average fold change)” value (OVA vs PBS) was 0.208. For the same molecule, the “AY036118 LN (average fold change)” value (OVA vs PBS) was −0.339, the “Actr3 LN (average fold change)” value (OVA vs PBS) was 0.315 and the “Alyref LN (average fold change)” value (OVA vs PBS) was −0.597. For the same molecule, the “Amd1 LN (average fold change)” value (OVA vs PBS) was −0.426, the “Arf4 LN (average fold change)” value (OVA vs PBS) was −0.186 and the “Arfrp1 LN (average fold change)” value (OVA vs PBS) was 0.609. The “Arl6ip1 LN (average fold change)” value (OVA vs PBS) was 0.367, the “Arl6ip5 LN (average fold change)” value (OVA vs PBS) was 0.344 and the “Arpc5l LN (average fold change)” value (OVA vs PBS) was 0.383. For the same molecule, the “Arrb2 LN (average fold change)” value (OVA vs PBS) was 0.295, the “Ash1l LN (average fold change)” value (OVA vs PBS) was 0.491 and the “B2m LN (average fold change)” value (OVA vs PBS) was 0.159. For the same molecule, the “Bcl2 LN (average fold change)” value (OVA vs PBS) was 0.286, the “Bcl2a1b LN (average fold change)” value (OVA vs PBS) was −0.507 and the “Bcl2l11 LN (average fold change)” value (OVA vs PBS) was −0.208. For the same molecule, the “Bhlhe40 LN (average fold change)” value (OVA vs PBS) was −0.159, the “Cap1 LN (average fold change)” value (OVA vs PBS) was 0.235 and the “Ccr2 LN (average fold change)” value (OVA vs PBS) was 0.330. The “Cd47 LN (average fold change)” value (OVA vs PBS) was 0.262, the “Cd69 LN (average fold change)” value (OVA vs PBS) was −0.386 and the “Cd74 LN (average fold change)” value (OVA vs PBS) was −0.187. The “Cdk2ap1 LN (average fold change)” value (OVA vs PBS) was −0.673, the “Cdkn1a LN (average fold change)” value (OVA vs PBS) was −0.980 and the “Cdv3 LN (average fold change)” value (OVA vs PBS) was −0.281. For the same molecule, the “Cks2 LN (average fold change)” value (OVA vs PBS) was −0.601, the “Clec2d LN (average fold change)” value (OVA vs PBS) was 0.391 and the “Coq10b LN (average fold change)” value (OVA vs PBS) was −0.426. For the same molecule, the “Crem LN (average fold change)” value (OVA vs PBS) was −0.681, the “Csrp1 LN (average fold change)” value (OVA vs PBS) was −0.437 and the “Ctla2a LN (average fold change)” value (OVA vs PBS) was 0.372. The “Cxcr4 LN (average fold change)” value (OVA vs PBS) was 0.544, the “Ddx21 LN (average fold change)” value (OVA vs PBS) was −0.379 and the “Defa24 LN (average fold change)” value (OVA vs PBS) was −0.967. The “Dgat1 LN (average fold change)” value (OVA vs PBS) was −0.352, the “Dusp1 LN (average fold change)” value (OVA vs PBS) was −0.244 and the “Eef2 LN (average fold change)” value (OVA vs PBS) was 0.257. For the same molecule, the “Egr1 LN (average fold change)” value (OVA vs PBS) was −0.640, the “Eif4a2 LN (average fold change)” value (OVA vs PBS) was 0.300 and the “Emb LN (average fold change)” value (OVA vs PBS) was −0.223. For the same molecule, the “Fam105a LN (average fold change)” value (OVA vs PBS) was 0.376, the “Fasl LN (average fold change)” value (OVA vs PBS) was 0.296 and the “Fcer1g LN (average fold change)” value (OVA vs PBS) was 0.170.
